The supplement of paper PMC9170038

What was measured:
MS2 coat protein [1] = assay: apparent KD of MS2 coat protein, switch ON state; designed switch direction (-1 OFF switch, 1 ON switch): -1; higher = weaker reporter binding; conditions: FMN input: 0 or 200 uM; Eterna round: R93 (includes R88 designs)
How it was run: (§1)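 Designed RNA switches were transcribed on-chip from Illumina sequencing clusters and titrated with SNAP-549-labelled MS2 coat protein in twofold steps from 0.7 or 1.5 nM up to 3 µM. Each step lasted 0.8–1.5 h at first and 10–20 min by the end, in 100 mM Tris-HCl pH 7.5, 80 mM KCl and 4 mM MgCl2, without or with constant ligand. Apparent KD is the median, for each design, of fits to normalised cluster binding curves.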

MS2 coat protein [2] = assay: apparent KD of MS2 coat protein, switch OFF state (with FMN for OFF switches, without FMN for ON switches); designed switch direction (-1 OFF switch, 1 ON switch): -1; higher = weaker reporter binding; conditions: FMN input: 0 or 200 uM; Eterna round: R93 (includes R88 designs)
How it was run: as §1

| Sequence | apparent KD of MS2 coat protein (MS2 coat protein [1]) [µM] | apparent KD of MS2 coat protein (MS2 coat protein [2]) [µM] |
| --- | --- | --- |
| AAAAAAAAAGGAUAUAAAACAGAGGAUAUACAUAAAUAAAAACAUGAGGAUCACCCAUGUAGAAGGCUGAAAAA [Meechl Ex2 R2 m0] | 0.0187 | 0.0222 |
| AAAAAAAGAGGAUAUACGUGAAAAAUAAAAAUGUAAAAACCACAUGAGGAUCACCCAUGUAGAAGGCUUAAAAA [Ecx-I 62% 2] | 0.0264 | 0.0228 |
| AAAAAACAUGAGGAUCACCCAUGUAAGGAUAUCGAAAAGAAAAGAAAAGAAAGAAGAACGAGAAGGUACAAGAA [Neferirkare Kakai] | 0.0166 | 0.016 |
| AAAAAACAUGAGGAUCACCCAUGUAAGGAUAUCGGAAAAGGAAAAAAAAAAAAUAAGACGAGAAGGUACACCAA [Mat - Exclusion 1 - Eli mod - D79] | 0.0233 | 0.0312 |
| AAAAAACAUGAGGAUCACCCAUGUAAGGAUAUGCAAGAAAGAAGAAAGAAAAGAAAAAGCAGAAGGUACAAAAA [Amethyst 71] | 0.0321 | 0.0344 |
| AAAAAACAUGAGGAUCACCCAUGUAAGGAUAUGCGAAAUAAAAGAAAUAAAAAGGAAAGCAGAAGGUACAUGAA [JL wbt mod 8] | 0.0272 | 0.0844 |
| AAAAAACAUGAGGAUCACCCAUGUAAGGAUAUGCUAGGAAAAAGAAAAAUAAAAACUAGCAGAAGGUAUAUGAA [JL wbt mod 12] | 0.0245 | 0.0274 |
| AAAAAACAUGAGGAUCACCCAUGUAAGGAUAUGUAAAAUAAAAGAAAAAUAAAGAAAAGCAGAAGGUACAUGUA [JL wbt mod 16] | 0.0404 | 0.0445 |
| AAAAAACAUGAGGAUCACCCAUGUCAGGAUAUCGUGCAGAAAAAAAAAAAAAACUGCACGAGAAGGGACAUGAA [Mod of jnicol] | 0.042 | 0.0949 |
| AAAAAACAUGAGGAUCACCCAUGUCAGGAUAUCUGUAAAAAUUAAAAAAAUAAAAUACAGAGAAGGGACAUAAA [Ex1: 606] | 0.044 | 0.1 |
| AAAAAACAUGAGGAUCACCCAUGUGAGGAUAUCGAAAAGUUAAAGAAAAAGACGAAAAUGAGAAGGCGCAAAAA [Fiskers Exclusion D1] | 0.0263 | 0.0239 |
| AAAAAACAUGAGGAUCACCCAUGUGAGGAUAUGAAAAAACAAAAAAAAAAGUAAUCAAUCAGAAGGCACAACAA [JR_Exc--1_Sub1210] | 0.0274 | 0.0289 |
| AAAAAACAUGAGGAUCACCCAUGUGAGGAUAUGCAAAACCCAUAUAAAAAGAGAAAAAGCAGAAGGCACAAAAA [wbt round 1 mod] | 0.0258 | 0.0404 |
| AAAAAACAUGAGGAUCACCCAUGUGAGGAUAUGCAUAAAAAAAAAAAAAAAAAAAAAUGCAGAAGGCACAUAAA [jn_bayonne] | 0.0401 | 0.0785 |
| AAAAAACAUGAGGAUCACCCAUGUUAGGAUAUCGUGCAGAAAAAAAAAAAAAACUGCACGAGAAGGAACAAGGA [Brourd - Exclusion 1 - Sub 2] | 0.0291 | 0.0449 |
| AAAAAAGCAGGAUAUACGAACAUGUCAAAAGACGUGAAGGGACAUGAGGAUCACCCAUGUAGAAGGGUUAAGAA [JL Stem Breaker 16] | 0.179 | 0.0368 |
| AAAAAAGGAGGAUAUACGAACAUGUCAAAAGACGUGAAGGGACAUGAGGAUCACCCAUGUAGAAGGUCUAAAAA [JL Part Open 35] | 0.0523 | 0.0341 |
| AAAAACCUAGGAUAUACAUGAGGAUCACCCAUGUAAAGAAAAAAAAAGGGAAAAAAAAGUAGAAGGAGGAAGAA [JR_Exc003_Sub1201] | 0.0166 | 0.0186 |
